In PMC3778244 (Genes & Development, 2013):

T1: Poz1 (recombinant) (S. pombe, UniProt O13852 1-249)
T1 sequence: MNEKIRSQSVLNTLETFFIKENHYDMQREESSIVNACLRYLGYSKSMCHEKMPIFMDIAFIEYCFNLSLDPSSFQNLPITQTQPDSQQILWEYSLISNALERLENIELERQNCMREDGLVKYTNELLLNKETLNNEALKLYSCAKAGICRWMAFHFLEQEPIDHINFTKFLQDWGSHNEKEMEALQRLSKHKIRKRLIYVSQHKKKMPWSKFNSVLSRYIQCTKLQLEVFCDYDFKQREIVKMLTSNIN

T2: Ccq1 N-terminal domain (Ccq1-NTD; residues 2-439) (S. pombe, UniProt Q10432 2-439)
T2 sequence: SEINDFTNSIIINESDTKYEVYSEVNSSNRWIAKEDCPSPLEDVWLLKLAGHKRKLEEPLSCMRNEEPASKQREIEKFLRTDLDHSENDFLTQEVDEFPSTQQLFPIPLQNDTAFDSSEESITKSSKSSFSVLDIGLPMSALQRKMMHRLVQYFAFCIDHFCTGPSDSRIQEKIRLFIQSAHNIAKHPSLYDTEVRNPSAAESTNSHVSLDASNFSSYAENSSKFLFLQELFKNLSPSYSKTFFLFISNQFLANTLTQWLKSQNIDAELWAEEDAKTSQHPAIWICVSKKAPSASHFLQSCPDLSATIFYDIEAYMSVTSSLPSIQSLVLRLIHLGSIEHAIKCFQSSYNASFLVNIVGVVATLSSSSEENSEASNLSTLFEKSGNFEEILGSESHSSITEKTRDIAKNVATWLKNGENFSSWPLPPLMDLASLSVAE


What was measured:
[1] = target: T1, Poz1 (recombinant); assay: pull-down
[2] = target: T2, Ccq1 N-terminal domain (Ccq1-NTD; …); assay: pull-down

| binding result [1] | binding result [2] | Binder |
| --- | --- | --- |
| binds | binds | GST-Tpz1-CTD (Tpz1 C-terminal domain, residues 406-508) (domain or fragment) SSVISCTPPAINFTSDICNEQIELEYKRKPIPDYDFMKGLETTLQELYVEHQSKKRRLELFQLTNNHQKNSEACEMCRLGLPHGSFFELLRDWKKIEEFRNKS |
| – | binds | GST-Tpz1-CTD I501R (domain or fragment) SSVISCTPPAINFTSDICNEQIELEYKRKPIPDYDFMKGLETTLQELYVEHQSKKRRLELFQLTNNHQKNSEACEMCRLGLPHGSFFELLRDWKKREEFRNKS |
| binds | – | GST-Tpz1-CTD L449A (domain or fragment) SSVISCTPPAINFTSDICNEQIELEYKRKPIPDYDFMKGLETTAQELYVEHQSKKRRLELFQLTNNHQKNSEACEMCRLGLPHGSFFELLRDWKKIEEFRNKS |
